Reference: paper PMC6009577

Biological target: G4-P351A fragment of DGCR8 (proline at 351 to alanine) (human) (UniProt Q8WYQ5)
Test: SEC

A stoichiometry N of 2 was found for “G4-P351A fragment of DGCR8 (proline at 351 to alanine) (from UniProt Q8WYQ5 1-773) (domain or fragment)” in this work.
